# From paper PMC5669276
# How the values were obtained:
# [1] = biological target: Bluetongue virus (BTV) membrane penetration outer-layer protein VP5, as trimer on the virion (bluetongue virus (BTV)); assay: cryo-EM structure
# [2] = biological target: Bluetongue virus (BTV) membrane penetration outer-layer protein VP5, as trimer on the virion (bluetongue virus (BTV)); assay: […]
# [3] = biological target: Bluetongue virus (BTV) middle-layer core protein VP7, as trimer on the virion (bluetongue virus (BTV)); assay: cryo-EM structure
# [4] = biological target: Bluetongue virus (BTV) receptor-binding outer-layer protein VP2, as trimer on the virion (bluetongue virus (BTV)); assay: cryo-EM structure
substance,measurement,setting,value
"Bluetongue virus (BTV) membrane penetration outer-layer protein VP5, as trimer on the virion (natural protein)",stoichiometry N,[1],3
same,stoichiometry N,[2],3
"Bluetongue virus (BTV) middle-layer core protein VP7, as trimer on the virion (natural protein)",stoichiometry N,[3],3
"Bluetongue virus (BTV) receptor-binding outer-layer protein VP2, as trimer on the virion (natural protein)",stoichiometry N,[4],3
